# Assay results reported in the supplement of paper PMC11316812.
# ± gives the standard deviation of the averaged measurements.
# Assays:
# [1] = system: MCF7; experiment: percentage of EdU-negative (G0-arrested) nuclei per well, 72 h; higher = more G0 arrest; details: reference: sequence is the full UniProt precursor, the tested protein was the secreted form or ectodomain
# [2] = system: hTERT-HMEC; experiment: as above; details: reference: sequence is the full UniProt precursor, the tested protein was the secreted form or ectodomain
# [3] = protein concentration 0.03125 µM
# [4] = protein concentration 0.3125 µM
# [5] = protein concentration 0.0225 µM
# [6] = protein concentration 0.02275 µM
# [7] = protein concentration 0.2275 µM
# [8] = protein concentration 0.019635 µM
# [9] = protein concentration 0.19635 µM
# [10] = protein concentration 0.0208571 µM
# [11] = protein concentration 0.208571 µM
# [12] = protein concentration 0.0072075 µM
# [13] = protein concentration 0.072075 µM
# [14] = protein concentration 0.0357143 µM
# [15] = protein concentration 0.357143 µM
# 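Note: secreted proteins added to cultured cells, EdU pulse at the end, nuclei found by Hoechst imaging, EdU status from nuclear versus surrounding ring intensity ratio, PBS as neutral control.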
sequence,measurement,setting,value
MGHPPLLPLLLLLHTCVPASWGLRCMQCKTNGDCRVEECALGQDLCRTTIVRLWEEGEELELVEKSCTHSEKTNRTLSYRTGLKITSLTEVVCGLDLCNQGNSGRAVTYSRSRYLECISCGSSDMSCERGRHQSLQCRSPEEQCLDVVTHWIQEGEEGRPKDDRHLRGCGYLPGCPGSNGFHNNDTFHFLKCCNTTKCNEGPILELENLPQNGRQCYSCKGNSTHGCSSEETFLIDCRGPMNQCLVATGTHEPKNQSYMVRGCATASMCQHAHLGDAFSMNHIDVSCCTKSGCNHPDLDVQYRSGAAPQPGPAHLSLTITLLMTARLWGGTLLWT,percentage of EdU-negative,[1]; [3],23.5 ± 1.9%
same,percentage of EdU-negative,[1]; [4],21 ± 1.2%
same,percentage of EdU-negative,[2]; [3],5.81 ± 0.25%
same,percentage of EdU-negative,[2]; [4],5.79 ± 0.076%
MGHRFLRGLLTLLLPPPPLYTRHRMLGPESVPPPKRSRSKLMAPPRIGTHNGTFHCDEALACALLRLLPEYRDAEIVRTRDPEKLASCDIVVDVGGEYDPRRHRYDHHQRSFTETMSSLSPGKPWQTKLSSAGLIYLHFGHKLLAQLLGTSEEDSMVGTLYDKMYENFVEEVDAVDNGISQWAEGEPRYALTTTLSARVARLNPTWNHPDQDTEAGFKRAMDLVQEEFLQRLDFYQHSWLPARALVEEALAQRFQVDPSGEIVELAKGACPWKEHLYHLESGLSPPVAIFFVIYTDQAGQWRIQCVPKEPHSFQSRLPLPEPWRGLRDEALDQVSGIPGCIFVHASGFIGGHRTREGALSMARATLAQRSYLPQIS [Q9HB07],percentage of EdU-negative,[1]; [5],26.7 ± 1.3%
same,percentage of EdU-negative,[1]; protein concentration 0.225 µM,27.2 ± 0.95%
same,percentage of EdU-negative,[2]; [5],4.42 ± 0.079%
same,percentage of EdU-negative,[2]; protein concentration 0.225 µM,11 ± 1.7%
MGIELLCLFFLFLGRNDHVQGGCALGGAETCEDCLLIGPQCAWCAQENFTHPSGVGERCDTPANLLAKGCQLNFIENPVSQVEILKNKPLSVGRQKNSSDIVQIAPQSLILKLRPGGAQTLQVHVRQTEDYPVDLYYLMDLSASMDDDLNTIKELGSRLSKEMSKLTSNFRLGFGSFVEKPVSPFVKTTPEEIANPCSSIPYFCLPTFGFKHILPLTNDAERFNEIVKNQKISANIDTPEGGFDAIMQAAVCKEKIGWRNDSLHLLVFVSDADSHFGMDSKLAGIVIPNDGLCHLDSKNEYSMSTVLEYPTIGQLIDKLVQNNVLLIFAVTQEQVHLYENYAKLIPGATVGLLQKDSGNILQLIISAYEELRSEVELEVLGDTEGLNLSFTAICNNGTLFQHQKKCSHMKVGDTASFSVTVNIPHCERRSRHIIIKPVGLGDALELLVSPECNCDCQKEVEVNSSKCHHGNGSFQCGVCACHPGHMGPRCECGEDMLSTDSCKEAPDHPSCSGRGDCYCGQCICHLSPYGNIYGPYCQCDNFSCVRHKGLLCGGNGDCDCGECVCRSGWTGEYCNCTTSTDSCVSEDGVLCSGRGDCVCGKCVCTNPGASGPTCERCPTCGDPCNSKRSCIECHLSAAGQAREECVDKCKLAGATISEEEDFSKDGSVSCSLQGENECLITFLITTDNEGKTIIHSINEKDCPKPPNIPMIMLGVSLAILLIGVVLLCIWKLLVSFHDRKEVAKFEAERSKAKWQTGTNPLYRGSTSTFKNVTYKHREKQKVDLSTDC,percentage of EdU-negative,[1]; [5],23.6 ± 0.48%
same,percentage of EdU-negative,[1]; protein concentration 0.225 µM,28 ± 1.7%
same,percentage of EdU-negative,[2]; [5],5.434 ± 0.051%
same,percentage of EdU-negative,[2]; protein concentration 0.225 µM,6.34 ± 1.4%
MGIGRSEGGRRGAALGVLLALGAALLAVGSASEYDYVSFQSDIGPYQSGRFYTKPPQCVDIPADLRLCHNVGYKKMVLPNLLEHETMAEVKQQASSWVPLLNKNCHAGTQVFLCSLFAPVCLDRPIYPCRWLCEAVRDSCEPVMQFFGFYWPEMLKCDKFPEGDVCIAMTPPNATEASKPQGTTVCPPCDNELKSEAIIEHLCASEFALRMKIKEVKKENGDKKIVPKKKKPLKLGPIKKKDLKKLVLYLKNGADCPCHQLDNLSHHFLIMGRKVKSQYLLTAIHKWDKKNKEFKNFMKKMKNHECPTFQSVFK [Q8N474],percentage of EdU-negative,[1]; protein concentration 0.008 µM,25.5 ± 1.6%
same,percentage of EdU-negative,[1]; protein concentration 0.08 µM,26.5 ± 2.3%
same,percentage of EdU-negative,[2]; protein concentration 0.008 µM,5.94 ± 0.1%
same,percentage of EdU-negative,[2]; protein concentration 0.08 µM,7.36 ± 1.1%
MGILKLQVFLIVLSVALNHLKATPIESHQVEKRKCNTATCATQRLANFLVHSSNNFGAILSSTNVGSNTYGKRNAVEVLKREPLNYLPL,percentage of EdU-negative,[1]; [6],26.1 ± 1.4%
same,percentage of EdU-negative,[1]; [7],26.8 ± 4.2%
same,percentage of EdU-negative,[2]; [6],4.22 ± 0.57%
same,percentage of EdU-negative,[2]; [7],5.2 ± 0.82%
MGILSFLPVLATESDWADCKSPQPWGHMLLWTAVLFLAPVAGTPAAPPKAVLKLEPQWINVLQEDSVTLTCRGTHSPESDSIQWFHNGNLIPTHTQPSYRFKANNNDSGEYTCQTGQTSLSDPVHLTVLSEWLVLQTPHLEFQEGETIVLRCHSWKDKPLVKVTFFQNGKSKKFSRSDPNFSIPQANHSHSGDYHCTGNIGYTLYSSKPVTITVQAPSSSPMGIIVAVVTGIAVAAIVAAVVALIYCRKKRISALPGYPECREMGETLPEKPANPTNPDEADKVGAENTITYSLLMHPDALEEPDDQNRI,percentage of EdU-negative,[1]; [8],25 ± 1.1%
same,percentage of EdU-negative,[1]; [9],25.9 ± 1.6%
same,percentage of EdU-negative,[2]; [8],4.58 ± 0.074%
same,percentage of EdU-negative,[2]; [9],5.06 ± 0.42%
MGIQGGSVLFGLLLVLAVFCHSGHSLQCYNCPNPTADCKTAVNCSSDFDACLITKAGLQVYNKCWKFEHCNFNDVTTRLRENELTYYCCKKDLCNFNEQLENGGTSLSEKTVLLLVTPFLAAAWSLHP,percentage of EdU-negative,[1]; [5],28.2 ± 1.9%
same,percentage of EdU-negative,[1]; protein concentration 0.225 µM,25.8 ± 1%
same,percentage of EdU-negative,[2]; [5],5.4 ± 0.53%
same,percentage of EdU-negative,[2]; protein concentration 0.225 µM,5.24 ± 1.1%
MGKGDPKKPRGKMSSYAFFVQTCREEHKKKHPDASVNFSEFSKKCSERWKTMSAKEKGKFEDMAKADKARYEREMKTYIPPKGETKKKFKDPNAPKRPPSAFFLFCSEYRPKIKGEHPGLSIGDVAKKLGEMWNNTAADDKQPYEKKAAKLKEKYEKDIAAYRAKGKPDAAKKGVVKAEKSKKKKEEEEDEEDEEDEEEEEDEEDEDEEEDDDDE,percentage of EdU-negative,[1]; [5],23.1 ± 4.2%
same,percentage of EdU-negative,[1]; protein concentration 0.225 µM,24.5 ± 0.87%
same,percentage of EdU-negative,[2]; [5],5.16 ± 0.5%
same,percentage of EdU-negative,[2]; protein concentration 0.225 µM,5.64 ± 0.066%
MGKNKLLHPSLVLLLLVLLPTDASVSGKPQYMVLVPSLLHTETTEKGCVLLSYLNETVTVSASLESVRGNRSLFTDLEAENDVLHCVAFAVPKSSSNEEVMFLTVQVKGPTQEFKKRTTVMVKNEDSLVFVQTDKSIYKPGQTVKFRVVSMDENFHPLNELIPLVYIQDPKGNRIAQWQSFQLEGGLKQFSFPLSSEPFQGSYKVVVQKKSGGRTEHPFTVEEFVLPKFEVQVTVPKIITILEEEMNVSVCGLYTYGKPVPGHVTVSICRKYSDASDCHGEDSQAFCEKFSGQLNSHGCFYQQVKTKVFQLKRKEYEMKLHTEAQIQEEGTVVELTGRQSSEITRTITKLSFVKVDSHFRQGIPFFGQVRLVDGKGVPIPNKVIFIRGNEANYYSNATTDEHGLVQFSINTTNVMGTSLTVRVNYKDRSPCYGYQWVSEEHEEAHHTAYLVFSPSKSFVHLEPMSHELPCGHTQTVQAHYILNGGTLLGLKKLSFYYLIMAKGGIVRTGTHGLLVKQEDMKGHFSISIPVKSDIAPVARLLIYAVLPTGDVIGDSAKYDVENCLANKVDLSFSPSQSLPASHAHLRVTAAPQSVCALRAVDQSVLLMKPDAELSASSVYNLLPEKDLTGFPGPLNDQDNEDCINRHNVYINGITYTPVSSTNEKDMYSFLEDMGLKAFTNSKIRKPKMCPQLQQYEMHGPEGLRVGFYESDVMGRGHARLVHVEEPHTETVRKYFPETWIWDLVVVNSAGVAEVGVTVPDTITEWKAGAFCLSEDAGLGISSTASLRAFQPFFVELTMPYSVIRGEAFTLKATVLNYLPKCIRVSVQLEASPAFLAVPVEKEQAPHCICANGRQTVSWAVTPKSLGNVNFTVSAEALESQELCGTEVPSVPEHGRKDTVIKPLLVEPEGLEKETTFNSLLCPSGGEVSEELSLKLPPNVVEESARASVSVLGDILGSAMQNTQNLLQMPYGCGEQNMVLFAPNIYVLDYLNETQQLTPEIKSKAIGYLNTGYQRQLNYKHYDGSYSTFGERYGRNQGNTWLTAFVLKTFAQARAYIFIDEAHITQALIWLSQRQKDNGCFRSSGSLLNNAIKGGVEDEVTLSAYITIALLEIPLTVTHPVVRNALFCLESAWKTAQEGDHGSHVYTKALLAYAFALAGNQDKRKEVLKSLNEEAVKKDNSVHWERPQKPKAPVGHFYEPQAPSAEVEMTSYVLLAYLTAQPAPTSEDLTSATNIVKWITKQQNAQGGFSSTQDTVVALHALSKYGAATFTRTGKAAQVTIQSSGTFSSKFQVDNNNRLLLQQVSLPELPGEYSMKVTGEGCVYLQTSLKYNILPEKEEFPFALGVQTLPQTCDEPKAHTSFQISLSVSYTGSRSASNMAIVDVKMVSGFIPLKPTVKMLERSNHVSRTEVSSNHVLIYLDKVSNQTLSLFFTVLQDVPVRDLKPAIVKVYDYYETDEFAIAEYNAPCSKDLGNA,percentage of EdU-negative,[1]; [10],23 ± 0.6%
same,percentage of EdU-negative,[1]; [11],27.8 ± 2.3%
same,percentage of EdU-negative,[2]; [10],4.57 ± 0.3%
same,percentage of EdU-negative,[2]; [11],5.37 ± 0.84%
MGKPWLRALQLLLLLGASWARAGAPRCTYTFVLPPQKFTGAVCWSGPASTRATPEAANASELAALRMRVGRHEELLRELQRLAAADGAVAGEVRALRKESRGLSARLGQLRAQLQHEAGPGAGPGADLGAEPAAALALLGERVLNASAEAQRAAARFHQLDVKFRELAQLVTQQSSLIARLERLCPGGAGGQQQVLPPPPLVPVVPVRLVGSTSDTSRMLDPAPEPQRDQTQRQQEPMASPMPAGHPAVPTKPVGPWQDCAEARQAGHEQSGVYELRVGRHVVSVWCEQQLEGGGWTVIQRRQDGSVNFFTTWQHYKAGFGRPDGEYWLGLEPVYQLTSRGDHELLVLLEDWGGRGARAHYDGFSLEPESDHYRLRLGQYHGDAGDSLSWHNDKPFSTVDRDRDSYSGNCALYQRGGWWYHACAHSNLNGVWHHGGHYRSRYQDGVYWAEFRGGAYSLRKAAMLIRPLKL [Q8NI99],percentage of EdU-negative,[1]; [12],23.9 ± 1.3%
same,percentage of EdU-negative,[1]; [13],25.7 ± 0.84%
same,percentage of EdU-negative,[2]; [12],4.22 ± 0.45%
same,percentage of EdU-negative,[2]; [13],5.15 ± 0.94%
MGKSASKQFHNEVLKAHNEYRQKHGVPPLKLCKNLNREAQQYSEALASTRILKHSPESSRGQCGENLAWASYDQTGKEVADRWYSEIKNYNFQQPGFTSGTGHFTAMVWKNTKKMGVGKASASDGSSFVVARYFPAGNVVNEGFFEENVLPPKK [Q9H4G4],percentage of EdU-negative,[1]; [14],25.6 ± 0.71%
same,percentage of EdU-negative,[1]; [15],24.5 ± 0.79%
same,percentage of EdU-negative,[2]; [14],4.55 ± 0.31%
same,percentage of EdU-negative,[2]; [15],7.6 ± 0.95%
